Measured values from article PMC3984256 (2014).

How the values were obtained:
[1] = target: T1, Recombinant PCNA (proliferating cell nuclear antigen) (human, UniProt P12004 1-261); experiment: SPR; 0 nM caPep
[2] = target: T1, Recombinant PCNA (proliferating cell …); experiment: SPR; 500 nM caPep
[3] = target: T1, Recombinant PCNA (proliferating cell …); experiment: SPR; 1000 nM caPep

T1 sequence (P12004 whole entry): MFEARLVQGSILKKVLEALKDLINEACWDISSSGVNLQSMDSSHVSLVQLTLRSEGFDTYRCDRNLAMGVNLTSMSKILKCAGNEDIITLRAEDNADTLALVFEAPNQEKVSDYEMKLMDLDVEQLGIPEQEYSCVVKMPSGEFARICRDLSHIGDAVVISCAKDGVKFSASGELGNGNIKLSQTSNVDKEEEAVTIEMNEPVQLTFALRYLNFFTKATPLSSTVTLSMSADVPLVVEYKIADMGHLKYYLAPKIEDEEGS

SKSRQGSTQGRLDDFF [FEN1 peptide containing the PIP-box] was tested, and the Kd [1] was 0.0846 µM, the Kd [2] was 3.33 µM and the Kd [3] was 250 µM.
